Assay results reported in patent US20250073307A1 (Chugai, published 2025).
Positions count from the first letter of the chain named. In names and notes the source's numbering stands. Like-named read-outs stand apart in the source and are kept apart here.

T1: mouse CXCR3 (mCXCR3) expressed on Ba/F3 transfectant cells (mouse, UniProt O88410 1-367)
T1 sequence (looked up): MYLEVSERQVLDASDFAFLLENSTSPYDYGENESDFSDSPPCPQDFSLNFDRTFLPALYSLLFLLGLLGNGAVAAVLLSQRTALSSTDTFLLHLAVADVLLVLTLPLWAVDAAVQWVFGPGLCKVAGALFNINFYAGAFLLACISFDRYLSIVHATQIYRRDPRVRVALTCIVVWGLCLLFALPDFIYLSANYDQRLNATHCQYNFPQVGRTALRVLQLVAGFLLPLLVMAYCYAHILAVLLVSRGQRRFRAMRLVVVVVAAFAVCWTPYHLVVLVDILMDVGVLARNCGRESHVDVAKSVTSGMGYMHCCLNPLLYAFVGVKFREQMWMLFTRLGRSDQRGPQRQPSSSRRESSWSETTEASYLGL

B1: hCXCL10R75A.0642-G1T4k.one//VHn-G1T4h.one.H435R (Fc fusion)
chain 1: VPLSRTVRCTCISISNQCVNPRSLEKLEIIPASQFCPRVEIIATMKKKGEKRCLNPESKCIKNLLKAVSKERSKASPEPKSSDKTHTCPPCPAPELRRGPSVFLFPPKPKDTLMISRTPEVTCVVVDVSHEDPEVKFNWYVDGVEVHNAKTKPREEQYNSTYRVVSVLTVLHQDWLNGKEYKCKVSNKGLPSSIEKTISKAKGQPREPQVCTLPPSREEMTKNQVSLWCLVKGFYPSDIAVEWESNGQPENNYKTTPPVLDSDGSFFLYSKLTVDKSRWQEGNVFSCSVMHEALHNHYTQKSLSLSP
chain 2: EPKSSDKTHTCPPCPAPELRRGPSVFLFPPKPKDTLMISRTPEVTCVVVDVSHEDPEVKFNWYVDGVEVHNAKTKPREEQYNSTYRVVSVLTVLHQDWLNGKEYKCKVSNKGLPSSIEKTISKAKGQPREPQVYTLPPSRCEMTKNQVSLSCAVKGFYPSDIAVEWESNGQPENNYKTTPPVLDSDGSFFLVSKLTVDKSRWQEGNVFSCSVMHEALHNRYTQKSLSLSP
B2: hCXCL10R75A.0643-G1T4k.one//VHn-G1T4h.one.H435R (Fc fusion)
chain 1: B1 chain 1 with V1Y, P2V, C18P, C60A
chain 2: B1 chain 2
B3: hCXCL10R75A.0644-G1T4k.one//VHn-G1T4h.one.H435R (Fc fusion)
chain 1: B1 chain 1 with P2V
chain 2: B1 chain 2
B4: hCXCL10R75A.0670-G1T4k.one//VHn-G1T4h.one.H435R (Fc fusion)
chain 1: B1 chain 1 with V1Y, P2V
chain 2: B1 chain 2
B5: hCXCL10R75A.0613-G1T4k.one//VHn-G1T4h.one.H435R (Fc fusion)
chain 1: B1 chain 1 with V1Y, P2V, V7P
chain 2: B1 chain 2

Key:
Test in all cases: cell-based or functional assay
[1] = biological target: T1, mouse CXCR3 (mCXCR3) expressed on Ba/F3 …
[2] = biological target: T1, mouse CXCR3 (mCXCR3) expressed on Ba/F3 …; remark: listed apart in the source
[3] = biological target: T1, mouse CXCR3 (mCXCR3) expressed on Ba/F3 …; remark: listed apart in the source
[4] = biological target: T1, mouse CXCR3 (mCXCR3) expressed on Ba/F3 …; remark: listed apart in the source
[5] = biological target: T1, mouse CXCR3 (mCXCR3) expressed on Ba/F3 …; remark: listed apart in the source

Binder	cell migration-inducing activity (BaF3/mCXCR3 transwell) at 3 nM, relative to hCXCL10R75A Fc fusion = 100% [2] [%]	cell migration-inducing activity (BaF3/mCXCR3 transwell) at 10 nM, relative to hCXCL10R75A Fc fusion = 100% [2] [%]	cell migration-inducing activity (BaF3/mCXCR3 transwell) at 30 nM, relative to hCXCL10R75A Fc fusion = 100% [2] [%]	cell migration-inducing activity (BaF3/mCXCR3 transwell) at 100 nM, relative to hCXCL10R75A Fc fusion = 100% [2] [%]	cell migration-inducing activity (BaF3/mCXCR3 transwell) at 300 nM, relative to hCXCL10R75A Fc fusion = 100% [2] [%]	cell migration-inducing activity (BaF3/mCXCR3 transwell) at 1000 nM, relative to hCXCL10R75A Fc fusion = 100% [2] [%]	cell migration-inducing activity at 3 nM, relative to hCXCL10R75A.0670 Fc fusion = 100% [5] [%]	cell migration-inducing activity at 10 nM, relative to hCXCL10R75A.0670 Fc fusion = 100% [5] [%]	cell migration-inducing activity at 30 nM, relative to hCXCL10R75A.0670 Fc fusion = 100% [5] [%]	cell migration-inducing activity at 100 nM, relative to hCXCL10R75A.0670 Fc fusion = 100% [5] [%]	cell migration-inducing activity at 300 nM, relative to hCXCL10R75A.0670 Fc fusion = 100% [5] [%]	cell migration-inducing activity at 1000 nM, relative to hCXCL10R75A.0670 Fc fusion = 100% [5] [%]	also measured
B1	196	150	106	98	116	80	–	–	–	–	–	–	cell migration-inducing activity (BaF3/mCXCR3 transwell) at 3 nM, relative to hCXCL10R75A Fc fusion = 100% [1]: 196%; cell migration-inducing activity (BaF3/mCXCR3 transwell) at 10 nM, relative to hCXCL10R75A Fc fusion = 100% [1]: 150%; cell migration-inducing activity (BaF3/mCXCR3 transwell) at 30 nM, relative to hCXCL10R75A Fc fusion = 100% [1]: 106%; cell migration-inducing activity (BaF3/mCXCR3 transwell) at 100 nM, relative to hCXCL10R75A Fc fusion = 100% [1]: 98%; cell migration-inducing activity (BaF3/mCXCR3 transwell) at 300 nM, relative to hCXCL10R75A Fc fusion = 100% [1]: 116%; cell migration-inducing activity (BaF3/mCXCR3 transwell) at 1000 nM, relative to hCXCL10R75A Fc fusion = 100% [1]: 80%
B2	–	–	–	–	–	–	–	–	–	–	–	–	cell migration-inducing activity (BaF3/mCXCR3 transwell) at 3 nM, relative to hCXCL10R75A Fc fusion = 100% [3]: 126%; cell migration-inducing activity (BaF3/mCXCR3 transwell) at 10 nM, relative to hCXCL10R75A Fc fusion = 100% [3]: 100%; cell migration-inducing activity (BaF3/mCXCR3 transwell) at 30 nM, relative to hCXCL10R75A Fc fusion = 100% [3]: 129%; cell migration-inducing activity (BaF3/mCXCR3 transwell) at 100 nM, relative to hCXCL10R75A Fc fusion = 100% [3]: 141%; cell migration-inducing activity (BaF3/mCXCR3 transwell) at 300 nM, relative to hCXCL10R75A Fc fusion = 100% [3]: 124%; cell migration-inducing activity (BaF3/mCXCR3 transwell) at 1000 nM, relative to hCXCL10R75A Fc fusion = 100% [3]: 26%
B3	174	144	109	107	153	163	–	–	–	–	–	–	–
B4	–	–	–	–	–	–	100	100	100	100	100	100	cell migration-inducing activity (BaF3/mCXCR3 transwell) at 3 nM, relative to hCXCL10R75A Fc fusion = 100% [4]: 195%; cell migration-inducing activity (BaF3/mCXCR3 transwell) at 10 nM, relative to hCXCL10R75A Fc fusion = 100% [4]: 146%; cell migration-inducing activity (BaF3/mCXCR3 transwell) at 30 nM, relative to hCXCL10R75A Fc fusion = 100% [4]: 132%; cell migration-inducing activity (BaF3/mCXCR3 transwell) at 100 nM, relative to hCXCL10R75A Fc fusion = 100% [4]: 132%; cell migration-inducing activity (BaF3/mCXCR3 transwell) at 300 nM, relative to hCXCL10R75A Fc fusion = 100% [4]: 127%; cell migration-inducing activity (BaF3/mCXCR3 transwell) at 1000 nM, relative to hCXCL10R75A Fc fusion = 100% [4]: 24%
B5	–	–	–	–	–	–	209	132	110	102	93	49	–
